Laboratory results reported in paper PMC8850660, “The P300 acetyltransferase inhibitor C646 promotes membrane translocation of insulin receptor protein substrate and interaction with the insulin receptor” (The Journal of Biological Chemistry, 2022).

Biological target: unphosphorylated beta subunit of the insulin receptor (IRβ), recombinant (UniProt P06213)
Assay: SPR; Biacore T200, unphosphorylated IRβ immobilised on a CM5 chip; same amounts of IRS1 or IRS2 injected together with different (nM) concentrations of C646; HBS-P buffer (10 mM Hepes, 150 mM NaCl, 0.05% P20, pH 7.4), 30 μl/min, 25 °C; global fit to 1:1 Langmuir model

Sequence of unphosphorylated beta subunit of the insulin receptor (IRβ), recombinant (P06213 763-1382): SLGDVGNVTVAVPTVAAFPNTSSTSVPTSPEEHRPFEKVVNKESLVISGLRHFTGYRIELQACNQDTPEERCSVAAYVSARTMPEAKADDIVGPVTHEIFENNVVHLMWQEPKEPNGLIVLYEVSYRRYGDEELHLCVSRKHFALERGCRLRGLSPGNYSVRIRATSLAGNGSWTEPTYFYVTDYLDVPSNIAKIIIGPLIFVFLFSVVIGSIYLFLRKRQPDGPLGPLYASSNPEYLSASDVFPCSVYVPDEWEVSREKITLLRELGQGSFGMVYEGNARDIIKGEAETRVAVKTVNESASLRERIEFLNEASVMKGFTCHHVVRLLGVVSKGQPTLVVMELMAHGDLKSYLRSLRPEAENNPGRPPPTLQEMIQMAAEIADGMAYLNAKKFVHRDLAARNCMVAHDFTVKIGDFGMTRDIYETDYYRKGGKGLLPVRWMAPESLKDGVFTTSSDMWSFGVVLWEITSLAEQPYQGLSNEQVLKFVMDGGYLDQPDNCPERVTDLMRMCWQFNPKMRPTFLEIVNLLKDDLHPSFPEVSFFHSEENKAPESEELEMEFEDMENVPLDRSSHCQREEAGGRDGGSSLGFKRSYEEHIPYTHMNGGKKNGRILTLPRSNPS

Substance | KD with C646
purified IRS1 protein (insulin receptor substrate 1) (from UniProt P35569 1-1233) (natural protein) | 2.86e-13
purified IRS2 protein (insulin receptor substrate 2) (from UniProt P81122 1-1321) (natural protein) | 7.6e-12
